One data set concerns E. coli AcpS. The note with it: reported (21,40); with respect to CoA; cited from earlier work.
The next data set deals with HetM ArCP. As to the kind of experiment: NhcS PPT assay, ESI-MS. In kind it is biochemical, N. punctiforme ATCC29133. Particulars: 30 minutes, 37° C. As for the experimental part:
(§1) PPT assays were carried out as previously described in Finking, R., et al., (2002) Characterization of a new type of phosphopantetheinyl transferase for fatty acid and siderophore synthesis in Pseudomonas aeruginosa. J Biol Chem 277:50293-302). In brief, a 100-400 μL reaction comprising of 50 mM Tris-HCl pH 7.4, 12.5 mM MgCl, 0.5 mM CoA, 2 μM DTT, 30 μg of the respective carrier proteins (CPs) and 300 nM of PPT was incubated at 37° C. for 30 minutes. Reactions were terminated by the addition of 1 ml of 10% TCA. Assays were precipitated overnight at −20° C. before at centrifugation 4° C., for 15 mins at 16,000 g. Protein pellets were analysed by electrospray ionisation mass spectrometry (ESI-MS). Spectra were acquired using an API QStar Pulsar i hybrid tandem mass spectrometer (Applied Biosystems, Foster City Calif.). Samples (˜200-400 fmol) were dissolved in water:acetonitrile:formic acid (50:49:1), loaded (1 μl) into nanospray needles (Proxeon, Denmark) and the tip positioned ˜10 mm from the orifice. Nitrogen was used as curtain gas and a potential of 900 V applied to the needle. A T of MS scan was acquired (m/z 550-2000, 1 second) and accumulated for ˜1 minute into a single file. […]
(§2) Activity was detected by ionisation mass spectrometry through the mass addition of […], relating to the incorporation of the pantetheinyl arm of CoA transferred by the PPT to the CP (FIG. 17).

Another data set has as its system Nppcp. The data set can be described thus: NhcS PPT assay, ESI-MS. The class given is biochemical, Nostoc punctiforme. Particulars: 30 minutes, 37° C. As for the experimental part:
as §1, §2

Data set [1] concerns Synechocystis sp. PCC6803. The data set can be described thus: Complementation of Sppt gene disruption with NsPPT. Particulars: PCR screening of segregation. The class given is cell-based. An excerpt:
A 2.5 kb fragment including Sppt (slr0495, Swissprot accession number Q55185) was amplified with the primers sirup (5′-[…]-3′) (SEQ ID NO: 7) and slrdn (5′-[…]-3′) (SEQ ID NO: 8). This fragment was cloned into pGEM-T-Easy (Promega) and digested with the restriction enzyme AvaI. A chloramphenicol (Chl^R) resistance cassette was ligated into this site and the resulting plasmid, pGCSlr, was naturally transformed into Synechocystis sp. PCC6803 to insertionally inactivate Sppt using methods described in Eaton-Rye, J., 2004 The construction of gene knockouts in the cyanobacterium Synechocystis sp. PCC 6803, Methods Mol. Biol.; 274:309-24. The Synechocystis sp. PCC6803 wildtype (WT) was also transformed with a chloramphenicol resistance knockout plasmid as a positive control for strain viability. Briefly, approximately 2 ml Synechocystis sp. PCC6803 cells were centrifuged and washed in BG-11 media. After resuspension in […] BG-11, 3 μg ml^−1 plasmid was added and the cells were incubated at 25° C. in 30 μmol m^−2 sec^−1 constant light for 6 hours. The cells were spread onto sterile nitrocellulose filters (0.45 μm, Millipore, Billerica Mass.) on non-selective BGTS plates (BG-11, 10 mM TES, 0.3% sodium thiosulfate, 1% agar). After 36 hours, the filters were transferred to selective BGTS plates with 10 μg ml^−1 chloramphenicol. […]

The test system of the next data set is Mpcp. The data set can be described thus: NhcS PPT assay, ESI-MS. The class given is biochemical, Microcystis aeruginosa. Particulars: 30 min assay. As for the experimental part:
as §1, §2

On to `CC(C)(COP(=O)(O)OP(=O)(O)OC[C@H]1O[C@@H](n2cnc3c(N)ncnc32)[C@H](O)[C@@H]1OP(=O)(O)O)[C@@H](O)C(=O)NCCC(=O)NCCS` [CoA, co-enzyme A], for which, in the data set with E. coli AcpS, the kcat value result is reported as “approximately 10 min^d”.

B1: NhcS: phosphopantetheinyl transferase (heterocyst carrier protein synthase) from Nodularia spumigena NSOR10 (protein)
chain: MTALNHLWLPVPTNLTLLPNDVHIWRIHLDVPEAQQQNLLATLSGDELTRANRFHFQEHRQRFIAGRGILRSILGSYLGIEPQRVLFDYQERGKPILADSLAKSGLWFNLSHSQGLALCAVNYHNRIGIDLEYIRRMSDVEALAKRFFLPREYDVVRSLSDHQQQEIFFRYWTCKEAYLKATGEGLAQLEQVEVLLNPTEPAQLQTSESWSLFELRAAEDYFAAVVVEGSGCNLQCWQY
As for B1, the “conversion of apo-ArCP to holo-ArCP” value in the data set with HetM ArCP was “conversion of the apo-ArCP (15.75 kDa) to the holo-ArCP (16.05 kDa) is seen”. Moreover, in the data set on Nppcp, the “pantetheinylation of Nppcp” value is “Nppcp was pantetheinylated”. Moreover, the “Sppt gene disruption in NsPPT-complemented strain” value in data set [1] is “Sppt was effectively disrupted in the NsPPT-complemented strain”. Further, the “pantetheinylation of Mpcp” value in the data set with Mpcp was “Complete pantetheinylation”.

The values above are taken from patent US9115359B2, “Methods for producing secondary metabolites” (NewSouth Innovations Pty Limited, priority 2007, dated 2015).
